The target in data set [1] is GST-Stat3 Arg31→Ala31 [GST: P08515].
For data set [2], the target named is GST-Stat3 fusion protein, P42227.
Data set [3] deals with mouse STAT3 (endogenous in GT1-7 cells and VSMC, or expressed from mouse STAT3 pcDNA3 in HEK293 cells), P42227.
mouse STAT3 (endogenous in GT1-7 cells and VSMC, or expressed from mouse STAT3 pcDNA3 in HEK293 cells), P42227, sequence (P42227 2-770): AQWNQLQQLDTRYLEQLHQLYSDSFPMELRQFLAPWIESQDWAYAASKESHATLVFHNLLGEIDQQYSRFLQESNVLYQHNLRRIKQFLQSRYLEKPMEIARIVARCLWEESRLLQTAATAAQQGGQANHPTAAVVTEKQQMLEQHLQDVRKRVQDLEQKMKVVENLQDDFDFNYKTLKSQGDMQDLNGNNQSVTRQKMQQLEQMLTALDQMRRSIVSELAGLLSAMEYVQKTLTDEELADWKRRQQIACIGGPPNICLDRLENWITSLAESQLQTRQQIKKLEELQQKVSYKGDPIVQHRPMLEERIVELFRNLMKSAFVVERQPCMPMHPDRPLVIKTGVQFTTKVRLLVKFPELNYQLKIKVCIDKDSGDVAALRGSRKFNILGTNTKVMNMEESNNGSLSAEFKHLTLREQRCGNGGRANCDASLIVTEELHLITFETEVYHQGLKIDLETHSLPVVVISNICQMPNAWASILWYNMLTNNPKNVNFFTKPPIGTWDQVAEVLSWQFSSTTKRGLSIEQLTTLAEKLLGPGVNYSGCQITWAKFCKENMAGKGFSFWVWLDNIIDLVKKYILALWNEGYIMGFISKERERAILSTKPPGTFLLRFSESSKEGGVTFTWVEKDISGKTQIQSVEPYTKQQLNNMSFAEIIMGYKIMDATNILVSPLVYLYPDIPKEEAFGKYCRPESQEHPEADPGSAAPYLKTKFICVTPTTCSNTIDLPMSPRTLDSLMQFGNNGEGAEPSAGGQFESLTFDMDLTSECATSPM

GST-Stat3 fusion protein, P42227, sequence (P42227 whole entry, the tested form may be a part): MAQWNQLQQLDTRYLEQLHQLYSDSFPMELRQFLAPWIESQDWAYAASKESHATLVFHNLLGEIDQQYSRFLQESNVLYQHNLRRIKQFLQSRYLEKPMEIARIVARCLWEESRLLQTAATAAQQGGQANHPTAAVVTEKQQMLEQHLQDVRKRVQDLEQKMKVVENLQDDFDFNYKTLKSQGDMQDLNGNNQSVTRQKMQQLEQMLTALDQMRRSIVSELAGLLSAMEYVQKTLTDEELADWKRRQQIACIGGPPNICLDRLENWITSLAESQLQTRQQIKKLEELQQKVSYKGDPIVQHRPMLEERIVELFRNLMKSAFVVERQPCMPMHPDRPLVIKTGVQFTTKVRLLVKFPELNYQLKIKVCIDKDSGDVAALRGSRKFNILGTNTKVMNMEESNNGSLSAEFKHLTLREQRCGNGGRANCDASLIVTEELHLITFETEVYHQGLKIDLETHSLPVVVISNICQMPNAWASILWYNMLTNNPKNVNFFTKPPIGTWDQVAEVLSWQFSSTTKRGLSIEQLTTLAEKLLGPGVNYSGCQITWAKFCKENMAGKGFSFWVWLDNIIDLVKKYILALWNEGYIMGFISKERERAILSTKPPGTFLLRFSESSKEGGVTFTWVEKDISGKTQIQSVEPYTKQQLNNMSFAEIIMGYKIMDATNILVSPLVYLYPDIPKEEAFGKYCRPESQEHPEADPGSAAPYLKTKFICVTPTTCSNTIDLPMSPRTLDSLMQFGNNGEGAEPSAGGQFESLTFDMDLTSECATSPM
GST-Stat3 Arg31→Ala31 [GST: P08515], sequence (P08515 whole entry, looked up, the tested form may be a part): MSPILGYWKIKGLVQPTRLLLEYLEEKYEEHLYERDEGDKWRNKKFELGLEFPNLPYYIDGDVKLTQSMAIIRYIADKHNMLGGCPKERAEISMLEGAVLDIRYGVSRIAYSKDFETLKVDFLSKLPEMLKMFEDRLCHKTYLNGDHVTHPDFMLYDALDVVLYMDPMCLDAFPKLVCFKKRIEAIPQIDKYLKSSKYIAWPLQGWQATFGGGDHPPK

B1: mouse PRMT2 (untagged; endogenous in NIH3T3 cells, MEFs, GT1-7 cells and VSMC, or expressed from mouse PRMT2 cDNA in HEK293 cells) (protein)
chain: MEAPGEGPCSESQVIPVLEEDPVDYGCEMQLLQDGAQLQLQLQPEEFVAIADYTATDETQLSFLRGEKILILRQTTADWWWGERAGCCGYIPANHLGKQLEEYDPEDTWQDEEYFDSYGTLKLHLEMLADQPRTTKYHSVILQNKESLKDKVILDVGCGTGIISLFCAHHARPKAVYAVEASDMAQHTSQLVLQNGFADTITVFQQKVEDVVLPEKVDVLVSEWMGTCLLFEFMIESILYARDTWLKGDGIIWPTTAALHLVPCSAEKDYHSKVLFWDNAYEFNLSALKSLAIKEFFSRPKSNHILKPEDCLSEPCTILQLDMRTVQVPDLETMRGELRFDIQKAGTLHGFTAWFSVYFQSLEEGQPQQVVSTGPLHPTTHWKQTLFMMDDPVPVHTGDVVHGFCCVTKKSGMEKAHVCLSELGCHVRTRSHVSTELETGSFRSGGDS
Consider B1, for which the “in vitro methylation with [3H]-AdoMet, MEF extracts as the enzyme source” value in data set [1] is “This mutation resulted in substantially no methylation of Stat3 (FIG. 20B, lane 3)”; in data set [2], “Cell extracts from wild-type MEFs were also capable of methylating GST-Stat3, whereas cell extracts from PRMT2^-/- cells abolished Stat3 methylation (FIG. 20B, lanes 2 and 4)”. For the same protein, the “leptin-induced Stat3 methylation in VSMC (anti-Stat3 immunoprecipitation, immunoblot with α-metR antibody)” value in data set [3] is recorded as “leptin (100 nM) evoked a transient methylation of Stat3 at 10 min in wild-type VSMC (FIG. 22D, lane 2-5), whereas increased Stat3 methylation was not observed in PRMT2^-/- cells (FIG. 22D, lane 6-9)”.

B2: mouse PRMT2-Flag (FLAG-tagged full-length PRMT-2) (protein)
chain: MEAPGEGPCSESQVIPVLEEDPVDYGCEMQLLQDGAQLQLQLQPEEFVAIADYTATDETQLSFLRGEKILILRQTTADWWWGERAGCCGYIPANHLGKQLEEYDPEDTWQDEEYFDSYGTLKLHLEMLADQPRTTKYHSVILQNKESLKDKVILDVGCGTGIISLFCAHHARPKAVYAVEASDMAQHTSQLVLQNGFADTITVFQQKVEDVVLPEKVDVLVSEWMGTCLLFEFMIESILYARDTWLKGDGIIWPTTAALHLVPCSAEKDYHSKVLFWDNAYEFNLSALKSLAIKEFFSRPKSNHILKPEDCLSEPCTILQLDMRTVQVPDLETMRGELRFDIQKAGTLHGFTAWFSVYFQSLEEGQPQQVVSTGPLHPTTHWKQTLFMMDDPVPVHTGDVVHGFCCVTKKSGMEKAHVCLSELGCHVRTRSHVSTELETGSFRSGGDS
B2: the “in vitro methylation with [3H]-AdoMet” value in data set [2] is on record as “Flag fusion protein from the cells transfected wild-type PRMT2-Flag cDNA could methylate GST-Stat3”.

Source of the values: patent US20060239990.
